Reference: article PMC5945891, “Proteomics of Stored Red Blood Cell Membrane and Storage-Induced Microvesicles Reveals the Association of Flotillin-2 With Band 3 Complexes” (Frontiers in Physiology, 2018)

B1: band 3 (natural protein, human (endogenous in RBCs), UniProt P02730 1-911, looked up)
chain: MEELQDDYEDMMEENLEQEEYEDPDIPESQMEEPAAHDTEATATDYHTTSHPGTHKVYVELQELVMDEKNQELRWMEAARWVQLEENLGENGAWGRPHLSHLTFWSLLELRRVFTKGTVLLDLQETSLAGVANQLLDRFIFEDQIRPQDREELLRALLLKHSHAGELEALGGVKPAVLTRSGDPSQPLLPQHSSLETQLFCEQGDGGTEGHSPSGILEKIPPDSEATLVLVGRADFLEQPVLGFVRLQEAAELEAVELPVPIRFLFVLLGPEAPHIDYTQLGRAAATLMSERVFRIDAYMAQSRGELLHSLEGFLDCSLVLPPTDAPSEQALLSLVPVQRELLRRRYQSSPAKPDSSFYKGLDLNGGPDDPLQQTGQLFGGLVRDIRRRYPYYLSDITDAFSPQVLAAVIFIYFAALSPAITFGGLLGEKTRNQMGVSELLISTAVQGILFALLGAQPLLVVGFSGPLLVFEEAFFSFCETNGLEYIVGRVWIGFWLILLVVLVVAFEGSFLVRFISRYTQEIFSFLISLIFIYETFSKLIKIFQDHPLQKTYNYNVLMVPKPQGPLPNTALLSLVLMAGTFFFAMMLRKFKNSSYFPGKLRRVIGDFGVPISILIMVLVDFFIQDTYTQKLSVPDGFKVSNSSARGWVIHPLGLRSEFPIWMMFASALPALLVFILIFLESQITTLIVSKPERKMVKGSGFHLDLLLVVGMGGVAALFGMPWLSATTVRSVTHANALTVMGKASTPGAAAQIQEVKEQRISGLLVAVLVGLSILMEPILSRIPLAVLFGIFLYMGVTSLSGIQLFDRILLLFKPPKYHPDVPYVKRVKTWRMHLFTGIQIICLAVLWVVKSTPASLALPFVLILTVPLRRVLLPLIFRNVELQCLDADDAKATFDEEEGRDEYDEVAMPV
notes: band 3 anion transporter of the human red blood cell membrane; bait captured with the anti-band 3 antibodies BRIC 6 and BRIC 170; Captured as native 'band 3 complexes' with no distinction between ankyrin, junctional and free complexes; also called band 3 complexes; source: endogenous, membranes of stored human RBCs and storage-induced microvesicles, 1% deoxycholate extract

Columns and labels:
[1] = biological target: the molecule itself; test: SDS-PAGE; band around 220 kDa on Coomassie-stained SDS-PAGE of total membrane proteins and co-IP eluates from RBCs and MVs
band 3 [2] = biological target: B1; test: co-IP; band 3 complexes captured from 1% deoxycholate extracts of storage-induced microvesicles (bags D-F; compared with RBCs of the same bags) on beads coated with BRIC 6 and BRIC 170; eluates analysed by western blot for flotillin-2, densitometry; conditions: partners not purified
band 3 [3] = biological target: B1; test: co-IP; band 3 complexes captured from 1% deoxycholate extracts of RBC membranes (short- and long-stored ECs, bags A-C) on beads coated with BRIC 6 and BRIC 170; eluates analysed by western blot (ADSL, α-adducin, flotillin-2), densitometry relative to Ponceau loading; conditions: partners not purified

Binder	stoichiometry N [1]	fold decrease of the amount in band 3 complexes, MVs against RBCs (band 3 [2]) [fold]	fold change of the amount in band 3 complexes, long-stored against short-stored ECs (band 3 [3]) [fold]
B1	2		
Flotillin-2 (natural protein, human (endogenous in RBCs), UniProt Q14254 1-428, looked up, flotillin-2, human, SwissProt Q14254; source: endogenous, membranes of stored human RBCs and storage-induced microvesicles, 1% deoxycholate extract) MGNCHTVGPNEALVVSGGCCGSDYKQYVFGGWAWAWWCISDTQRISLEIMTLQPRCEDVETAEGVALTVTGVAQVKIMTEKELLAVACEQFLGKNVQDIKNVVLQTLEGHLRSILGTLTVEQIYQDRDQFAKLVREVAAPDVGRMGIEILSFTIKDVYDKVDYLSSLGKTQTAVVQRDADIGVAEAERDAGIREAECKKEMLDVKFMADTKIADSKRAFELQKSAFSEEVNIKTAEAQLAYELQGAREQQKIRQEEIEIEVVQRKKQIAVEAQEILRTDKELIATVRRPAEAEAHRIQQIAEGEKVKQVLLAQAEAEKIRKIGEAEAAVIEAMGKAEAERMKLKAEAYQKYGDAAKMALVLEALPQIAAKIAAPLTKVDEIVVLSGDNSKVTSEVNRLLAELPASVHALTGVDLSKIPLIKKATGVQV		1.3	1.6
